According to patent publication US20250161472A1 (BIOATLA, published 2025):
Substitutions are numbered along the chain they refer to.

B1: HC-A097I (antibody, V domains shown)
VH: EVQLQQSGPELVKPGASVKISCKTSGYTFTEYTMHWMKQSHRKSLEWIGGINTNNGGTGYNQKFKGKATLTVDKSSSTAYMELRSLTSEDSAVYFCIRGSLYSYGNSYFDYWGQGTLVTVSS
VL: QIVLTQSPAIMSASPGEKVTITCSATSSVSYMHWFQQKPGTSPKLWIYGTSNLASGVPARFSGSGSGTSYSLTISRMEAEDAATYYCQQRSSYPFTFGQGTKVEIK
notes: CPE single point mutant of parent VH 48.6-HC-WT
B2: HC-I051E (antibody, V domains shown)
VH: B1 VH with I51E, I97A
VL: B1 VL
notes: as for B1
B3: HC-F029E (antibody, V domains shown)
VH: B1 VH with F29E, I97A
VL: B1 VL
notes: as for B1
B4: HC-G099E (antibody, V domains shown)
VH: B1 VH with I97A, G99E
VL: B1 VL
notes: as for B1
B5: HC-A097S (antibody, V domains shown)
VH: B1 VH with I97S
VL: B1 VL
notes: as for B1
B6: HC-G105D (antibody, V domains shown)
VH: B1 VH with I97A, G105D
VL: B1 VL
notes: as for B1
B7: HC-G050S (antibody, V domains shown)
VH: B1 VH with G50S, I97A
VL: B1 VL
notes: as for B1
B8: HC-N052C (antibody, V domains shown)
VH: B1 VH with N52C, I97A
VL: B1 VL
notes: as for B1
B9: HC-L101F (antibody, V domains shown)
VH: B1 VH with I97A, L101F
VL: B1 VL
notes: as for B1
B10: HC-M034D (antibody, V domains shown)
VH: B1 VH with M34D, I97A
VL: B1 VL
notes: as for B1
B11: HC-M034Y (antibody, V domains shown)
VH: B1 VH with M34Y, I97A
VL: B1 VL
notes: as for B1
B12: HC-A097M (antibody, V domains shown)
VH: B1 VH with I97M
VL: B1 VL
notes: as for B1
B13: HC-M034E (antibody, V domains shown)
VH: B1 VH with M34E, I97A
VL: B1 VL
notes: as for B1
B14: HC-D110L (antibody, V domains shown)
VH: B1 VH with I97A, D110L
VL: B1 VL
notes: as for B1
B15: HC-A097T (antibody, V domains shown)
VH: B1 VH with I97T
VL: B1 VL
notes: as for B1

Experiments:
[1] = target: T1, human ROR2 (receptor tyrosine kinase-like orphan receptor 2) (human, UniProt Q01974 34-403, limits assumed); experiment: affinity ELISA on human ROR2, pH 6.0; set-up: unit not given here
T1 construct: Antigen of the ELISA, SPR and pH titration assays; also called hROR2

[2] = target: T1, human ROR2 (receptor tyrosine …); experiment: affinity ELISA on human ROR2, pH 7.4; set-up: unit not given here

T1 sequence (Q01974 34-403 limits assumed): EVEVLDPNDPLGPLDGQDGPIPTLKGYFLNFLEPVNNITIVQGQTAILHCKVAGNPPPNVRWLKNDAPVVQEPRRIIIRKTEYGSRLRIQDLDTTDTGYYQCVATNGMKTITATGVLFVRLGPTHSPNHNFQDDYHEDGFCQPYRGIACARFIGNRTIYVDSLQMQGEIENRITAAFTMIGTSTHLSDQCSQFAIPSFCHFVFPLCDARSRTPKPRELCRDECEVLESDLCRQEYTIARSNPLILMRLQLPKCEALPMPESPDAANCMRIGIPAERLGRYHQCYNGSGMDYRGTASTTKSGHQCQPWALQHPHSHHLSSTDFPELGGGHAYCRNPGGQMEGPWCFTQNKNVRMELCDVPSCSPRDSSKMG

Binder	Affinity ELISA, pH 6.0 [1]	Affinity ELISA, pH 7.4 [2]
B1	1.89	1.73
B2	1.04	0.1
B3	1.34	0.742
B4	0.616	0.421
B5	1.67	1.69
B6	0.509	0.379
B7	0.828	0.318
B8	0.995	0.431
B9	1.46	1.41
B10	1.24	0.211
B11	0.903	0.391
B12	1.98	1.7
B13	1.17	0.185
B14	1.68	1.4
B15	1.83	1.69
